In assay [1] the target is T1, Muc1 mucin carrying the CA6 sialoglycotope (human, UniProt P15941 24-1255, sialylated O-linked carbohydrate carrying the CA6 epitope; positions not stated).
T1 construct: whole, on cells; Target of DS6 on CA6-positive human cell lines (flow cytometry) and in their lysates (dot blots, immunoprecipitation); also called CA6 antigen; DS6 antigen
Put plainly: flow cytometry on WISH cells, direct binding.

In assay [2] the target is T1, Muc1 mucin carrying the CA6 …. Put plainly: competition flow cytometry on WISH cells; competitor 2 nM biotin-muDS6, streptavidin-DTAF. The protocol:
(§1) To confirm that the huDS6 versions retains the affinity of muDS6, competitive binding experiments were conducted. […] In some cases, the experimentally measured apparent Kd can vary simply because of the secondary reagent used to indirectly detect binding.

The target is the same in assay [3]. Put plainly: flow cytometry on WISH cells, detected with goat anti-mouse-FITC. In general terms: A flow cytometer gives signals particle by particle.
Assay [4] has the same target. In words: flow cytometry on WISH cells, detected with streptavidin-DTAF. The protocol: as §1
For assay [5] the target is unchanged. In words: flow cytometry on HeLa cells.
For assay [6] the target is unchanged. Put plainly: cell-based or functional assay.
Assay [7] has the same target. In words: flow cytometry on Caov-3 cells.

B1: humanized DS6 antibody version 1.0 (antibody, human IgG1, V domains shown)
VH: QAQLQVSGAEVVKPGASVKMSCKASGYTFTSYNMHWVKQTPGQGLEWIGYIYPGNGATNYNQKFQGKATLTADTSSSTAYMQISSLTSEDSAVYFCARGDSVPFAYWGQGTLVTVSA
VL: EIVLTQSPATMSASPGERVTITCSAHSSVSFMHWFQQKPGTSPKLWIYSTSSLASGVPARFGGSGSGTSYSLTISSMEAEDAATYYCQQRSSFPLTFGAGTKLELKR
notes: also called huDS6 v1.0; v1.0
Broadly, the Kd is the concentration at which binding is half-saturated. Read a high Kd as lower affinity. Usually EC50 stands for the concentration needed to bring the measured effect to its halfway point. Lower therefore signals greater potency. Molecule B1 displayed a Kd in assay [1] of 3.71 nM. The molecule also yielded a 50% effective concentration (EC50) in assay [2] of 37.1 nM.

B2: biotinylated murine DS6 (antibody, V domains shown)
VH: QAYLQQSGAELVRSGASVKMSCKASGYTFTSYNMHWVKQTPGQGLEWIGYIYPGNGATNYNQKFKGKATLTADPSSSTAYMQISSLTSEDSAVYFCARGDSVPFAYWGQGTLVTVSA
VL: QIVLTQSPAIMSASPGEKVTITCSAHSSVSFMHWFQQKPGTSPKLWIYSTSSLASGVPARFGGSGSGTSYSLTISRMEAEDAATYYCQQRSSFPLTFGAGTKLELKR
modifications: biotinylated; positions not given
notes: Murine DS6 IgG with biotin; also called biotin-muDS6; biotin-DS6
Regarding B2, the results for the equilibrium dissociation constant (Kd) in assay [3] and in assay [4] were 2.8 nM and 6.76 nM, respectively.

B3: DS6-SPP-MM1-202 taxoid conjugate (antibody, V domains shown)
VH: QAYLQQSGAELVRSGASVKMSCKASGYTFTSYNMHWVKQTPGQGLEWIGYIYPGNGATNYNQKFKGKATLTADPSSSTAYMQISSLTSEDSAVYFCARGDSVPFAYWGQGTLVTVSA
VL: QIVLTQSPAIMSASPGEKVTITCSAHSSVSFMHWFQQKPGTSPKLWIYSTSSLASGVPARFGGSGSGTSYSLTISRMEAEDAATYYCQQRSSFPLTFGAGTKLELKR
modifications: taxoid MM1-202 linked through the SSNPP linker, 2.86 drugs/antibody; positions not given
notes: also called taxane-conjugated DS6 antibody
In turn, B3 yielded a Kd in assay [5] of 1.24 nM.

B4: chimeric DS6 (antibody, V domains shown)
VH: QAYLQQSGAELVRSGASVKMSCKASGYTFTSYNMHWVKQTPGQGLEWIGYIYPGNGATNYNQKFKGKATLTADPSSSTAYMQISSLTSEDSAVYFCARGDSVPFAYWGQGTLVTVSA
VL: QIVLTQSPAIMSASPGEKVTITCSAHSSVSFMHWFQQKPGTSPKLWIYSTSSLASGVPARFGGSGSGTSYSLTISRMEAEDAATYYCQQRSSFPLTFGAGTKLELKR
B4 returned a Kd in assay [1] of 3.15 nM.

B5: DS6 antibody-DM1 conjugate (antibody, V domains shown)
VH: QAYLQQSGAELVRSGASVKMSCKASGYTFTSYNMHWVKQTPGQGLEWIGYIYPGNGATNYNQKFKGKATLTADPSSSTAYMQISSLTSEDSAVYFCARGDSVPFAYWGQGTLVTVSA
VL: QIVLTQSPAIMSASPGEKVTITCSAHSSVSFMHWFQQKPGTSPKLWIYSTSSLASGVPARFGGSGSGTSYSLTISRMEAEDAATYYCQQRSSFPLTFGAGTKLELKR
modifications: DM1 linked through the SPP disulfide linker, DM1/Ab ratio 4.36; positions not given
notes: also called DS6-DM1; immunoconjugate
On to B5, for which, in assay [6], the “Clonogenic Assay Conjugate IC50 (M), BT-20 cells” value was over 3e-09 M; the “Clonogenic Assay Conjugate IC50 (M), BT-483 cells” value amounted to 1e-10 M; the “Clonogenic Assay Conjugate IC50 (M), Caov-3 cells” value amounted to 8e-10 M; the “Clonogenic Assay Conjugate IC50 (M), Caov-4 cells” value was over 3e-09 M. Also, in assay [6], the “Clonogenic Assay Conjugate IC50 (M), HPAC cells” value stood at 1.8e-09 M; the “Clonogenic Assay Conjugate IC50 (M), HPAF-II cells” value was over 3e-09 M; the “Clonogenic Assay Conjugate IC50 (M), HeLa cells” value was found to be 1.8e-09 M; the “Clonogenic Assay Conjugate IC50 (M), Hs766T cells” value is over 3e-09 M. In assay [6], the “Clonogenic Assay Conjugate IC50 (M), KB cells” value was determined as 1.4e-09 M; the “Clonogenic Assay Conjugate IC50 (M), OVCAR5 cells” value is over 3e-09 M; the “Clonogenic Assay Conjugate IC50 (M), T-47D cells” value was over 3e-09 M; the “Clonogenic Assay Conjugate IC50 (M), TOV-21G cells” value was found to be 2e-09 M. In assay [6], the “Clonogenic Assay Conjugate IC50 (M), WISH cells” value turned out to be 4.6e-10 M; the “MTT Assay Conjugate EC50 (M), BT-20 cells” value was determined as 1.44e-08 M; the “MTT Assay Conjugate EC50 (M), Caov-3 cells” value amounted to 1.61e-09 M; the “MTT Assay Conjugate EC50 (M), HPAC cells” value amounted to 1.84e-09 M. Moreover, in assay [6], the “MTT Assay Conjugate EC50 (M), HPAF-II cells” value amounted to 1e-08 M; the “MTT Assay Conjugate EC50 (M), Hs766T cells” value is over 3.2e-08 M; the “MTT Assay Conjugate EC50 (M), KB cells” value stood at 3.01e-09 M; the “MTT Assay Conjugate EC50 (M), OVCAR5 cells” value was 8.46e-07 M. Further, in assay [6], the “MTT Assay Conjugate EC50 (M), TOV-21G cells” value was 6.88e-09 M; the “MTT Assay Conjugate EC50 (M), WISH cells” value was 6.69e-10 M; the “MTT Assay Conjugate EC50 (M), ZR-75-1 cells” value worked out at 9.45e-10 M. Also, in assay [7], the equilibrium dissociation constant (Kd) stood at 3.9 nM.

B6: humanized DS6 antibody version 1.2 (antibody, human IgG1, V domains shown)
VH: QAQLQVSGAEVVKPGASVKMSCKASGYTFTSYNMHWVKQTPGQGLEWIGYIYPGNGATNYNQKFQGKATLTADPSSSTAYMQISSLTSEDSAVYFCARGDSVPFAYWGQGTLVTVSA
VL: EIVLTQSPATMSASPGERVTITCSAHSSVSFMHWFQQKPGTSPKLWIYSTSSLASGVPARFGGSGSGTSYSLTISSMEAEDAATYYCQQRSSFPLTFGAGTKLELKR
notes: The light chain is the same as in v1.0; also called huDS6 v1.2; v1.2
The molecule B6 yielded a Kd in assay [1] of 4.2 nM. The EC50 in assay [2] stood at 22.6 nM.

The values are drawn from US20050123549A1 (IMMUNOGEN, published 2005).
